# Measured values taken from patent US20230192818A1.
# Positions count from the first letter of the chain named.
# B1: 11-2 (antibody, V domains shown)
# VH: QVQLVESGGGVVQPGRSLRLSCAASGFTFGTYAMHWVRQAPGKGLEWVAVVSTEGGTTYYADSVKGRFTISRDNSKNTLYLQMNSLRAEDTAVYYCAGSYGAYFDYWGQGTLVTVSS
# VL: EIVLTQSPATLSLSPGERATLSCRASQSVNSYLAWYQQKPGQAPRLLIYDVSNRATGIPARFSGSGSGTDFTLTISSLEPEDFAVYYCQQFSNWPTFGGGTKVEIK
# B2: 11-9 (antibody, V domains shown)
# VH: B1 VH
# VL: EIVLTQSPATLSLSPGERATLSCRASQSVSYYLAWYQQKPGQAPRLLIYDSSNRATGIPARFSGSGSGTDFTLTISSLEPEDFAVYYCQQRSNWQGNFGGGTKVEIK
# B3: 12-6 (antibody, V domains shown)
# VH: QVQLVESGGGVVQPGRSLRLSCAASGFIFRNYAMHWVRQAPGKGLEWVAVISYDGSNKYYADSVKGRFTISRDNSKNTLYLQMNSLRAEDTAVYYCARPRGGSYHGAFDIWGQGTLVTVSS
# VL: B1 VL with V29L, N30G, S31N, V51S, F91R, S92N, N93W, W94P, P95Y
# B4: 11-15 (antibody, V domains shown)
# VH: QVQLVESGGGVVQPGRSLRLSCAASGFIFSNYGMHWVRQAPGKGLEWVAVISYDGSDKYYADSVKGRFTISRDNSKNTLYLQMNSLRAEDTAVYYCARDDYMYGFEHWGQGTLVTVSS
# VL: EMVVPQSPPTVSLSPGERATLSCRASQSVGSYLAWYQQKPGQAPRLLIYDAVNRATGIPARFSGSGSGTDFTLTISSLEPEDFAVYYCQQRSDSITFGGGTKVEIK
# B5: 11-20 (antibody, V domains shown)
# VH: B3 VH with I28T, R30D, N31D, R98S, R100H, G101S, H105W, G106A
# VL: EIVLTQSPATLSLSPGERATLSCRASQSVGSYLAWYQQKPGQAPRLLIYDAVNRATGIPARFSGSGSGTDFTLTISSLEPEDFAVYYCQQRSLWPFGGGTKVEIK
# B6: 12-1 (antibody, V domains shown)
# VH: B3 VH with I28T, R30S, N31Y, A33G, I51T, R100Q, H105F, G106A
# VL: B5 VL with G30S, Y32H, A51V, V52S, S92D, L93T, W94F, P95T
# B7: 11-4 (antibody, V domains shown)
# VH: QVQLVESGGGVVQPGRSLRLSCAASGFTFDNYAMHWVRQAPGKGLEWVAVISDDGRNKYYADSVKGRFTISRDNSKNTLYLQMNSLRAEDTAVYYCAKDNYYDSSGYYGGGMDVWGQGTLVTVSS
# VL: B2 VL with S30G, Y31S, S51A, S52V, S92F, N93T, Q95P, G96T, N97T
# B8: 11-6 (antibody, V domains shown)
# VH: QVQLVESGGGVVQPGRSLRLSCAASGFTFGTYAMHWVRQAPGKGLEWVAVVSTEGGTTYYADSVKGRFTISRDNSKNTLYLQMNSLRAEDTAVYYCAGEYYDSSGSSIDYWGQGTLVTVSS
# VL: B2 VL with S30D, Y31S, Y32S, S51A, R91Q, Q95P, N97T
# B9: 11-16 (antibody, V domains shown)
# VH: QVQLVESGGGVVQPGRSLRLSCAASGFTFSDHYMHWVRQAPGKGLEWVAVISYDGSNEYYADSVKGRFTISRDNSKNTLYLQMNSLRAEDTAVYYCAKDLGPAGVDYWGQGTLVTVSS
# VL: B2 VL with V29L, S30G, Y31R, R91Y, S92G, N93D, Q95P, G96E, N97T
# B10: 12-5 (antibody, V domains shown)
# VH: QVQLVESGGGVVQPGRSLRLSCAASGFTFSYYGMHWVRQAPGKGLEWVAVTSYDGSNKYYSDSVKGRFTISRDNSKNTLYLQMNSLRAEDTAVYYCARPKSGSYATYFDYWGQGTLVTVSS
# VL: B2 VL with S28N, S30G, Y31Q, Y32S, S51A, S92E, Q95P, G96P, N97T
# B11: 11-10 (antibody, V domains shown)
# VH: QVQLVESGGGVVQPGRSLRLSCAASGFIFNNYGMHWVRQAPGKGLEWVAVISYDGSNIYYADSVKGRFTISRDNSKNTLYLQMNSLRAEDTAVYYCARDYNDGIGSYTGAFDSWGQGTLVTVSS
# VL: B2 VL with Y31T, Y32S, S51A, S52T, R91H, S92Y, N93S, Q95P, G96L, N97T
# B12: 12-2 (antibody, V domains shown)
# VH: B3 VH with N31S, N57S, R100S, G101S, H105F, G106P, A107P, I110Y
# VL: B2 VL with S30D, Y31S, Y32R, S51T, N93T, Q95P, G96P, N97V
# B13: 11-1 (antibody, V domains shown)
# VH: QVQLVESGGGVVQPGRSLRLSCAASGFTFGSYGMHWVRQAPGKGLEWVAVISYDGGDEYYADSVKGRFTISRDNSKNTLYLQMNSLRAEDTAVYYCARDISRYGYYGMDVWGQGTLVTVSS
# VL: EIVLTQSPATLSLSPGERATLSCRASQSLGSFLAWYQQKPGQAPRLLIYDASNRATGIPARFSGSGSGTDFTLTISSLEPEDFAVYYCQQRALWPRLTFGGGTKVEIK
# B14: 11-18 (antibody, V domains shown)
# VH: QVQLVESGGGVVQPGRSLRLSCAASGFTFGTYAMHWVRQAPGKGLEWVAVISYDGNNKYYADSVKGRFTISRDNSKNTLYLQMNSLRAEDTAVYYCAKTGSGSYYSWFDYWGQGTLVTVSS
# VL: B13 VL with G30T, F32Y, A92H, L93Y, R96P, L97I
# B15: 12-8 (antibody, V domains shown)
# VH: B3 VH with I28T, R30N, A33V, S56T, K58D, P99G, R100E, G101S, H105W, I110Y
# VL: B13 VL with S28N, L29I, S31N, F32H, A51V, A92K, L93S, R96P, L97F
# B16: 11-3 (antibody, V domains shown)
# VH: B14 VH with G30S, T31N, Y32F, N57H, K58E, G100N, Y105G, S106G, W107M
# VL: EIVLTQSPATLSLSPGERATLSCRASQNIGNHLAWYQQKPGQAPRLLIYDASNRATGIPARFSGSGSGTDFTLTISSLEPEDFAVYYCQQRDNGPPEGTFGGGTKVEIK
# B17: 12-4 (antibody, V domains shown)
# VH: B10 VH with T51I, S56T, K58D, S61A, R98K, K100H, A105R, T106G
# VL: B2 VL with S30G, Y31S, Y32H, S51A, R91I, Q95P, G96L, N97T
# B18: 12-7 (antibody, V domains shown)
# VH: B3 VH with I28T, R30S, N31I, S56T, K58E, R98K, P99S, H105Y, I110Y
# VL: B2 VL with V29L, S30G, Y31N, S92T, N93D, Q95P, G96P, N97S
# B19: 11-11 (antibody, V domains shown)
# VH: QVQLVESGGGVVQPGRSLRLSCAASGFTFDNYAMHWVRQAPGKGLEWVAVISYDGSNKYYADSVKGRFTISRDNSKNTLYLQMNSLRAEDTAVYYCLREGILWDVWGQGTLVTVSS
# VL: EIVLTQSPATLSLSPGERATLSCRASHNINNFLAWYQQKPGQAPRLLIYDTSNRATGIPARFSGSGSGTDFTLTISSLEPEDFAVYYCQQGRNWPPSSFGGGTKVEIK
# Target: biotinylated SARS-CoV-2 S1 variant B.1.351 (Example 5) (SARS-CoV-2) (UniProt P0DTC2)
# Test: phage ELISA screening
row,Binder,ELISA
1,B1,19.4
2,B2,9.14
3,B3,22.4
4,B4,4.97
5,B5,3.42
6,B6,29.2
7,B7,16.3
8,B8,12.6
9,B9,4.65
10,B10,22.8
11,B11,7.06
12,B12,25.9
13,B13,21.7
14,B14,3.7
15,B15,21.4
16,B16,17.3
17,B17,23.5
18,B18,22.2
19,B19,6.43
